Article PMC11477680, “A Label-Free Electrochemical Aptamer Sensor for Sensitive Detection of Cardiac Troponin I Based on AuNPs/PB/PS/GCE”

Legend:
myoglobin (Myo) = target: T1, myoglobin (Myo) (UniProt P02144 2-154); experiment: electrochemical aptasensor (DPV); 1 ng/mL; negligible current change; Aptamer immobilization: 20 mM Tris-HCl, 5 mM MgCl2, 50 mM NaCl, pH 7.4, 4 C; cTnI incubation 1 h (serum samples: 10% serum in 20 mM Tris-HCl, 150 mM NaCl, pH 7.4, 37 C); DPV read in 0.8 M KNO3, CV/EIS in 0.1 M PBS with 5 mM [Fe(CN)6]3-/4-; conditions: protein: commercial
T1 sequence: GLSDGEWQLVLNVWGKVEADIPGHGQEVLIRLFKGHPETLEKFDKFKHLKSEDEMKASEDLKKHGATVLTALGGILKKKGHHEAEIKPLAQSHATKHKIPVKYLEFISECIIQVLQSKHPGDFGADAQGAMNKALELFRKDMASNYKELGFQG

[1] = target: cardiac troponin I (cTnI) (UniProt P19429 2-210); experiment: electrochemical aptasensor (DPV, CV, EIS); DPV response 10 fg/mL-1.0 ug/mL, LOD 2.03 fg/mL; Rct 514 to 606 ohm with 100 ng/mL cTnI; Aptamer immobilization: 20 mM Tris-HCl, 5 mM MgCl2, 50 mM NaCl, pH 7.4, 4 C; cTnI incubation 1 h (serum samples: 10% serum in 20 mM Tris-HCl, 150 mM NaCl, pH 7.4, 37 C); DPV read in 0.8 M KNO3, CV/EIS in 0.1 M PBS with 5 mM [Fe(CN)6]3-/4-; conditions: protein: commercial
Sequence of cardiac troponin I (cTnI) (P19429 2-210): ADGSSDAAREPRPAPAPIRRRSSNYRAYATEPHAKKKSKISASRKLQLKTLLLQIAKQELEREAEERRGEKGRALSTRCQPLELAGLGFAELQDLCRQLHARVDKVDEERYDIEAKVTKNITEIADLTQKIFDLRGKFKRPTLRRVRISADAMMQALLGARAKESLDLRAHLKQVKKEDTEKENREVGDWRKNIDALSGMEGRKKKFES

CGTGCAGTACGCCAACCTTTCTCATGCGCTGCCCCCCTCTTA (ssDNA, 5'-SH-(C6) thiol linker) [Tro4]
binding result (myoglobin (Myo)): no binding | binding result [1]: binds
